From article PMC10952133, “Phytocystatin 6 is a context‐dependent, tight‐binding inhibitor of Arabidopsis thaliana legumain isoform β” (The Plant Journal, 2023)
Where two headings read alike, the source gives them in different places. Each block holds one molecule with its values, some of them ahead of it.

Key:
[1] = target: Arabidopsis thaliana legumain isoform β, activated (AtLEGβ) (Arabidopsis thaliana) (UniProt Q39044); assay: enzyme inhibition kinetics (Ki, Morrison equation); turnover of 50 μM Z-Ala-Ala-Asn-AMC by 50 nM legumain, 25°C, 20 mM citric acid pH 5.5, 100 mM NaCl, 0.02% Tween 20, 2 mM DTT; inhibitor in 1:2 serial dilutions from 15-fold the enzyme concentration, quadruplicates
[2] = target: human legumain, activated (hLEG) (human) (UniProt Q99538); assay: as above
[3] = target: Arabidopsis thaliana legumain isoform γ, activated (AtLEGγ) (Arabidopsis thaliana) (UniProt Q39119); assay: as above
[4] = target: Arabidopsis thaliana legumain isoform β, activated (AtLEGβ) (Arabidopsis thaliana) (UniProt Q39044)
[5] = target: T1, Papain from Carica papaya (Carica papaya, UniProt P00784 134-345); assay: enzyme inhibition kinetics (Ki, Morrison equation); turnover of 50 μM Z-Phe-Arg-AMC by 50 nM papain, 25°C, 20 mM MES pH 6.0 (legend of Figure 3: pH 6.5), 50 mM NaCl, 0.02% Tween 20, 2 mM DTT; inhibitor in 1:2 serial dilutions from 15-fold the enzyme concentration, quadruplicates
T1 construct: papain of Carica papaya, used as a model of the papain-like cysteine proteases; source: bought: Merck
T1 sequence (looked up): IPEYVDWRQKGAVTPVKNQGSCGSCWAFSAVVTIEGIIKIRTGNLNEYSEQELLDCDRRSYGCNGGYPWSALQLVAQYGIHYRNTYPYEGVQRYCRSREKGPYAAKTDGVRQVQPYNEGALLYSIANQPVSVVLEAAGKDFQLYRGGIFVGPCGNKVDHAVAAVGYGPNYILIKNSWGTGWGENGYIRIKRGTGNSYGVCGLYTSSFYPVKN

Sequence of Arabidopsis thaliana legumain isoform β, activated (AtLEGβ) (Arabidopsis thaliana) (Q39044 22-486): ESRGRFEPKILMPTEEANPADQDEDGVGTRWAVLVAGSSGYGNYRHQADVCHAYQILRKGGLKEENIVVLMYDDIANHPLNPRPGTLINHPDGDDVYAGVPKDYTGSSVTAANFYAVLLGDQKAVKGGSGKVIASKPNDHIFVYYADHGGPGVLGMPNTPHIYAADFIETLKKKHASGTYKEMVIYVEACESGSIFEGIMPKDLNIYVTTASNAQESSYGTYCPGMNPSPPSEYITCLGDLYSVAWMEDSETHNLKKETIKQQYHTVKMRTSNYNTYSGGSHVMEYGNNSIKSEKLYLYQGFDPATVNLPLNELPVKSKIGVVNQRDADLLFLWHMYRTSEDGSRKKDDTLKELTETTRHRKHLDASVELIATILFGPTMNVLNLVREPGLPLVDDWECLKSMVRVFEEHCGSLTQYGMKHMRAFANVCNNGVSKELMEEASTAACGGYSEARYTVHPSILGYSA
Sequence of human legumain, activated (hLEG) (human) (Q99538 18-323): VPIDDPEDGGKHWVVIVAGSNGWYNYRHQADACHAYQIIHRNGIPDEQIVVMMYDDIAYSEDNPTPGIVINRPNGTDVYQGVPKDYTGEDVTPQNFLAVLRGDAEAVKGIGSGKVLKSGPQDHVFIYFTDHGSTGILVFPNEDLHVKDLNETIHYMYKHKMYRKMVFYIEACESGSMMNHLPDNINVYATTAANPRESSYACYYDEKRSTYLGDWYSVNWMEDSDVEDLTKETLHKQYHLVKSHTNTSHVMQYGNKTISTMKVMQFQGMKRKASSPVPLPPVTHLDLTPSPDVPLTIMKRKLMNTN
Sequence of Arabidopsis thaliana legumain isoform γ, activated (AtLEGγ) (Arabidopsis thaliana) (Q39119 30-494): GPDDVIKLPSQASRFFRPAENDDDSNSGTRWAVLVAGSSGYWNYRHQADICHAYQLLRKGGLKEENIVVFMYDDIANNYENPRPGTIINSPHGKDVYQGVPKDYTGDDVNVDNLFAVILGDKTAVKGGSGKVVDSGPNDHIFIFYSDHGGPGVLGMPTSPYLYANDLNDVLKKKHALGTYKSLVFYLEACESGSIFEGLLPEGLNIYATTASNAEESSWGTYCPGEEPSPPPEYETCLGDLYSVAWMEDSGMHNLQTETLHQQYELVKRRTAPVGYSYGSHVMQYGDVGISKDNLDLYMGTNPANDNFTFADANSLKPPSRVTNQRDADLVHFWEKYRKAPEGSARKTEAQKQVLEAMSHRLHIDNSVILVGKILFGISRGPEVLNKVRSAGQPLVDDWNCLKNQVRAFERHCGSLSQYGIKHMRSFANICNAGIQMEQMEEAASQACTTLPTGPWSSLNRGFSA

Ki [1]: 3.98 nM
Molecule: AtCYT6-CTD-K208A (domain or fragment)

Ki [1]: 0.61 nM
Ki [2]: 61.4 nM
Ki [3]: 0.86 nM
inflection temperature T i of AtLEGβ by nanoDSF at pH 6.5, equimolar AtCYT6-CTD (AtLEGβ alone 49.6°C) [4]: 57 °C
Molecule: C-terminal domain of AtCYT6 (AtCYT6-CTD, E142-D235) (domain or fragment)

Ki [5]: 27.8 nM
Ki [1]: 0.29 nM
Ki [2]: 106 nM
Ki [3]: 1.21 nM
inflection temperature T i of AtLEGβ by nanoDSF at pH 6.5, equimolar AtCYT6-FL (AtLEGβ alone 49.6°C) [4]: 58.9 °C
Molecule: full-length AtCYT6 lacking the N-terminal signal peptide (AtCYT6-FL, A35-D235) (natural protein)

Ki [1]: 0.68 nM
Molecule: C-terminal domain of AtCYT6 carrying the interdomain linker (AtCYT6-CTDlong, A128-D235) (domain or fragment)

Ki [1]: 3.36 nM
Molecule: AtCYT6-CTD-R205A (domain or fragment)

Ki ([5]; both partners purified): 6.3 ± 1.43 nM
B1: N-terminal domain of AtCYT6 (AtCYT6-NTD, A35-D127) (domain or fragment, Arabidopsis thaliana, UniProt Q8H0X6-1 35-127, looked up)
chain: ALVGGVGDVPANQNSGEVESLARFAVDEHNKKENALLEFARVVKAKEQVVAGTLHHLTLEILEAGQKKLYEAKVWVKPWLNFKELQEFKPASD
notes: Arabidopsis thaliana cystatin 6, N-terminal cystatin domain, residues A35-D127; Cloned into pET-28; source: E. coli BL21(DE3), purified (Ni-NTA, SEC)
